Entries after “also recorded” stand apart in the source; their conditions may differ.
Key:
ADA-deficient mice [1] = settings: cited from earlier work
[2] = system: corpus cavernosal strips (CCS); assay: EFS-induced relaxation of phenylephrine-precontracted corpus cavernosal strips (CCS) of ADA+ and ADA-/- mice; type: cell-based, mouse
Text: Prolonged penile erection in ADA-deficient mice is associated with increased corpus cavernosal relaxation in response to nerve stimulation. To determine if the potent and prolonged penile erection seen in ADA-deficient mice is associated with increased corpus cavernosal relaxation, we evaluated comparatively the relaxation of phenylephrine-precontracted isolated corpus cavernosal strips of ADA+ and ADA−/− mice in response to nerve stimulation^73,74. The corpus cavernosum is under sympathetic influence to maintain a contracted state resulting in a flaccid penis^3. To emulate this situation, contraction was induced by treatment with the α-adrenergic receptor agonist, phenylephrine (10 μM). The maximum phenylephrine-induced contraction was reached within 10-20 s after application to cavernosal strips from ADA+ and ADA−/− mice. Electrical field stimulation (EFS) is commonly used to stimulate the nerves that innervate the smooth muscle cells of the corpus cavernosum to mediate relaxation, corresponding to normal physiological penile erection^19,73,74,92,93. In our studies, EFS induced relaxation of corpus cavernosal strips from both ADA+ and ADA−/− mice in a voltage and frequency-dependent manner (FIGS. 14b and c). For ADA+ mice, relaxation increased incrementally over a standard voltage range with a maximal response at 20 V and 30 Hz.
Elevated adenosine in ADA-deficient mice contributes to increased corpus cavernosal strip relaxation. […]
Function experiments. […] The contractility of each isolated corpus cavernosum smooth muscle cells (CCSM) strip was measured using an isometric force transducer (AD Instrument Inc., Georgia, Vt., USA). […] The contractile responses of the strips were analysed by adding 10 μM phenylephrine to the bath, and force changes were recorded in response to drug application and to electrical field stimulation. […] The changes of cAMP and cGMP contents in CC strips were subsequently measured by commercial enzyme immunoassay kit (Amersham Pharmacia) (see below).

[3] = system: corpus cavernosal strips (CCS); assay: Adenosine-induced relaxation of corpus cavernosal strips (CCS); type: cell-based, mouse; settings: CCS of wild type mice, 1-10 μM, adenosine 100 μM
Description: FIG. 16. […] CCS of wild type mice were treated with different concentrations of adenosine with or without DCF (5 μM), a specific inhibitor of adenosine deaminase. Then the extent (mN) of force was monitored. (b) CCS of wild type mice were treated with 100 μM adenosine in the presence of different concentrations of DCF (0-100 uM). Then the extent of force was measured. Data are expressed as mean±SE. *p<0.05, adenosine treated versus the control, **p<0.05, DCF treated versus the adenosine treated.
FIG. 17. A2BR signaling is required for adenosine-mediated corpus cavernosal strips (CCS) relaxation. (a) CCS of wild type mice were treated with different concentrations of theophiline (1-10 μM) in the presence or absence of adenosine (100 μM). The force changes were measured by force transducer. Data are expressed as mean±SE. *p<0.05, adenosine treated versus the control, **p<0.05, theophiline treated versus the untreated, N=5. (b) CCS from wild type, A2AR, A1R A2BR and A3R-deficient mice were treated with different concentrations of adenosine. The relaxation was measured by force transducer. Data are expressed as mean±SE. *p<0.05, adenosine treated versus the wild type. (c) CCS were isolated from wild type and A2BR-deficient mice and treated with different concentrations of adenosine in the presence or absence of L-NAME (100 μM) or MRS1706 (10 μM). 10 min after treatment, cellular extracts were collected and cAMP levels were measured by using a commercial enzyme immunoassay kit (Amersham Pharmacia). Data are expressed as mean±SE. *p<0.05, adenosine treated versus the control without treatment; **p<0.05, adenosine treated with MRS1706 versus the adenosine treated alone; ***p<0.05, CCS of A2BR-deficient mice treated with adenosine versus the CCS of wild type mice treated with adenosine. N=6-7. (d) CCS of A2BR and ADA double deficient mice lost the hypersensitivity to nerve stimulation compared to ADA deficient mice.
(§1) Function experiments. The tunica albuginea was cut longitudinally, starting at the most proximal point of the corpus cavernosum (CC) toward the penile shaft, and the erectile tissue was partially dissected free from the tunica. One strip of tissue (0.3×0.3×3 mm) was obtained from each corpus cavernosum. The contractility of each isolated corpus cavernosum smooth muscle cells (CCSM) strip was measured using an isometric force transducer (AD Instrument Inc., Georgia, Vt., USA). The strip was mounted in a thermostatically controlled tissue bath containing aerated PSS (mM: 119 NaCl, 4.7 KCl, 24 NaHCO 3, 1.2 KH2PO4, 2.5 CaCl2, 1.2 MgSO4, 0.023 EDTA, and 11 glucose; 5 ml volume, 95% O2 and 5% CO2, 37° C.) and stretched to a resting tension of 0.1 mN. The contractile responses of the strips were analysed by adding 10 μM phenylephrine to the bath, and force changes were recorded in response to drug application and to electrical field stimulation. The particular electrical field stimulation parameters of 0-30V, 30 HZ with a pulse width of approximately 0.5 ms, are commonly used in the mice. […] The changes of cAMP and cGMP contents in CC strips were subsequently measured by commercial enzyme immunoassay kit (Amersham Pharmacia) (see below).

[4] = system: multiple animal models, including humans; settings: in vivo; cited from earlier work
ADA-deficient mice [5] = assay: Spontaneous prolonged penile erection (priapic activity) in ADA-deficient mice, PEG-ADA enzyme therapy; type: in vivo, mouse; settings: intraperitoneal injection of PEG-ADA
Description: The ADA-deficient mice were injected with PEG-ADA weekly. During the course of maintaining our production colony of ADA-deficient mice, we noticed that ADA-deficient male breeders (kept alive by enzyme therapy) frequently presented with prolonged penile erections lasting up to 72 hours (FIG. 1a). The penile erections were typically noticed at the time of the scheduled weekly PEG-ADA injection. We know from earlier studies that the lowest levels of circulating adenosine are achieved during the first day following the PEG-ADA injection^21,28. Adenosine levels rise continually during the subsequent days preceding the next PEG-ADA injection. Thus, adenosine levels are highest just prior to the scheduled weekly injection of PEG-ADA when the priapism was observed^21,28. Priapic erections were never observed in wild type male mice (FIG. 14a).
Prolonged penile erection in ADA-deficient mice depends on pronounced accumulation of adenosine in the penis. We hypothesized that the increased penile erection and corpus cavernosal smooth muscle relaxation in response to nerve stimulation in ADA-deficient mice were due to elevated concentrations of adenosine. To test this hypothesis, adenosine levels were quantified in penile tissue from ADA^+ and ADA^−/− mice^21,23,28. […]

[6] = system: corpus cavernosal strips (CCS); assay: EFS-induced relaxation of CCS of SCD transgenic mice and controls; type: cell-based, mouse
Description: FIG. 21. Priapic activity seen in SCD transgenic mice is dependent on elevated adenosine in penis via A2BR signaling. (a) Adenosine levels in the penis increased in SCD transgenic mice. Perchloric acid extracts of penile tissues from SCD transgenic mice and control mice were analyzed by HPLC to determine the levels of adenosine. The data are expressed as mean±SE. *p<0.005, (control n=5 and SCD transgenic mice n=6), SCD transgenic mice versus the controls. (b) Increased corpus cavernosum strips (CCS) relaxation by electrical field stimulation (EFS) in SCD transgenic mice. Relaxation effect of EFS with different voltages (0-30V) at 30 Hz and 0.5 ms pulse width, alternating polarity between pulses, in 10 μM phenylephrine-precontracted CCS from the controls (n=5) and SCD transgenic mice (n=5). (c-e) Prolonged penile erection seen in SCD transgenic mice is due to high levels of adenosine in the penis via A2BR signaling. Average EFS-induced relaxation from the PE-precontracted CC strips of the controls and SCD transgenic mice treated without or with PEG-ADA, MRS1706 or ZM241389. EFS-induced force change (c), duration of relaxation by EFS (d) and area under basal line (e) were representative of the CCS relaxation. (n=5 for the controls and n=5 for SCD transgenic mice with or without PEG-ADA, MRS1706 or ZM241389 treatment, respectively). Data are given as means±SE. *p<0.05, SCD transgenic mice versus the controls, **p<0.05, CCS of […] with PEG-ADA, MRS1706 or ZM241389 treatment versus CCS of SCD transgenic mice without treatment; ***p<0.05, CCS of the control mice with MRS1706 and/or L-NAME treatment versus CCS of the control mice without treatment.
Sickle cell disease (SCD) transgenic mice, expressing exclusively human sickle hemoglobin, were also used. These mice were age-matched, adult male homozygotes [SS^−/−, consisting of a transgene and two targeted gene deletions: (Tg (Hu-miniLCR alpha 1G gamma A gamma delta beta s) Hba0//Hba0 Hbb0//Hbb00) and heterozygotes (SS^−/+, SS^−/− genotype except Hbb0//Hbb+), developed on a mixed-strain background (mouse strains FVB/N, 129, DBA/2, C57BL/6, Black Swiss)^94,95.
as §1

## CCCn1c(=O)c2[nH]c(-c3cnn(Cc4cccc(C(F)(F)F)c4)c3)nc2n(CC)c1=O [CVT-6883]
ADA-deficient mice [1]
  adenosine-mediated pulmonary fibrosis and enlargement of alveolar airspaces: significantly reduces adenosine-mediated pulmonary fibrosis and enlargement of alveolar airspaces

## CNC[C@H](O)c1cccc(O)c1 [phenylephrine]
[2]; 10 μM, cavernosal strips from ADA+ and ADA-/- mice
  time to maximum phenylephrine-induced contraction: 10 to 20 s

## Cn1c(=O)c2[nH]cnc2n(C)c1=O [theophyline, theophylline]
[3]
  inhibition of adenosine-mediated corpus cavernosal strip relaxation: significantly inhibited adenosine-mediated corpus cavernosal strip relaxation in a dosage dependent manner
[4]
  adenosine-induced penile tumescence: inhibited adenosine-induced penile tumescence

B1: PEG-ADA: purified bovine ADA covalently modified with activated polyethylene glycol; modified form of ADA used for enzyme therapy (protein, UniProt P56658 2-363, looked up)
Adenosine deaminase: AQTPAFNKPKVELHVHLDGAIKPETILYYGRKRGIALPADTPEELQNIIGMDKPLSLPEFLAKFDYYMPAIAGCREAVKRIAYEFVEMKAKDGVVYVEVRYSPHLLANSKVEPIPWNQAEGDLTPDEVVSLVNQGLQEGERDFGVKVRSILCCMRHQPSWSSEVVELCKKYREQTVVAIDLAGDETIEGSSLFPGHVKAYAEAVKSGVHRTVHAGEVGSANVVKEAVDTLKTERLGHGYHTLEDATLYNRLRQENMHFEVCPWSSYLTGAWKPDTEHPVVRFKNDQVNYSLNTDDPLIFKSTLDTDYQMTKNEMGFTEEEFKRLNINAAKSSFLPEDEKKELLDLLYKAYGMPSPASAEQCL
modifications: PEG
notes: modified form of ADA used for enzyme therapy
ADA-deficient mice [5]
  prolonged penile erection / priapic activity: quickly corrected; also recorded: quickly reverses the priapic activity; also recorded: relieved the prolonged penile erection
[2]; CCS from ADA-/- mice, EFS 5V and 30 Hz for 60 s, versus untreated CCS
  force, duration and area under baseline of EFS-induced relaxation: significantly reduced the force, duration and area under baseline
[2]; CCS of control (ADA+) mice, EFS 5V and 30 Hz
  EFS-induced CCS relaxation: decreased the EFS-induced CCS relaxation
ADA-deficient mice [1]; lowering adenosine by PEG-ADA therapy
  pulmonary inflammation and fibrosis: can prevent and even reverse aspects of pulmonary inflammation and fibrosis
[6]; CCS of SCD transgenic mice versus untreated CCS
  force, duration and area under baseline of EFS-induced relaxation: significantly reduced the force, duration and area under baseline
[6]; CCS of the controls
  force, duration and area under baseline of EFS-induced relaxation: decreased the force, duration and area under baseline

— patent publication US20100254965A1, “Adenosine Signaling in Diagnosis, Treatment, and Prevention of Priapism and Erectile Dysfunction” (BOARD OF REGENTS ,THE UNIVERSITY OF TEXAS SYSTEM, priority 2006, published 2010)
